The source of these data is patent US20180208666A1 (VENTANA MEDICAL SYSTEMS, published 2018).

In assay [1] the target is T1, human OX40 (human, UniProt P43489 29-277).
T1 construct: no signal peptide limits are stated
T1 sequence: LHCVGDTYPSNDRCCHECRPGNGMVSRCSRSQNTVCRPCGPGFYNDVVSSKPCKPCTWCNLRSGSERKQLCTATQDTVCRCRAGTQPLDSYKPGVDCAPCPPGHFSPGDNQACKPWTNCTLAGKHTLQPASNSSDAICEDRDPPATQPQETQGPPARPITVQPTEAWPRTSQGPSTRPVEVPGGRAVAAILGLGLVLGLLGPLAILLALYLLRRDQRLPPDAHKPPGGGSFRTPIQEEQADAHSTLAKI
Kind of assay: IHC on FFPE OX-40 transfected cells and FFPE tissues, ultraView DAB detection. On the procedure:
IHC was performed using StdCC1 cell conditioning with ultraView Universal DAB Detection Kit (Ventana Medical Systems, Inc., Tucson, Ariz.). Primary antibody was incubated for 16 min at 37° C. on a BenchMark ULTRA automated slide stainer (Ventana Medical Systems, Inc., Tucson, Ariz.). Results are shown at Fig. (A) Mock transfected cells (negative control cells); (B) OX-40 transfected cells (positive control cells); (C) Reactive lymph node; and (D) Prostate adenocarcinoma.

Assay [2] deals with T2, peptide fragment of amino acid residues 266-277 of OX40 (human, also: conjugated to KLH for immunisation).
T2 construct: It was conjugated to KLH for immunisation; also called OX40 antigen; 12-amino acid fragment
T2 peptide: EQADAHSTLAKI
In words: ELISA screen of antibody-expressing cells on the OX40 antigen (peptide 266-277). The source says:
Anti-OX40 rabbit monoclonal antibodies were generated as schematically depicted in FIG. 1. Briefly, the peptide fragment of amino acid residues 266-277 of was synthesized. The 12-amino acid fragment intended for immunization was conjugated to keyhole limpet hemocyanin (KLH), an extensively used carrier protein for stimulating a substantial immune response via antibody production. New Zealand White rabbits were immunized with KLH conjugated OX40 antigen emulsified with complete Freund's adjuvant followed by a series of OX40 antigen booster emulsified with incomplete Freund's adjuvant. The antibody-expressing cells were screened by enzyme-linked immunoabsorbant assay (ELISA) using the OX40 antigen. All ELISA positive clones were further screened by immunohistochemistry (IHC), and the clone producing the antibody with the highest specificity was selected. For recombinant production of anti-OX40 antibodies, cDNA coding for the heavy chain and light chain sequences of the antibodies were cloned, expressed by co-transfection, and screened for binding to OX40 by IHC. Anti-OX40 monoclonal antibody SP197 was produced using these methods and subsequently purified by Protein A affinity chromatography. The heavy and light chain variable region sequences of the SP197 antibody are as follows.
In general terms: In an ELISA, binding on a coated surface is turned into a signal by an enzyme label.

Ends that are not written are not given here.

B1: Anti-OX40 monoclonal antibody SP197 (antibody, V domains shown)
VH: QSLEESGGRLVAPGGSLTLTCTVSGIDLSSDNIQWVRQAPGKGLEWIGAVDYNNKPFYANWAKGRFTISKTSSTTVDLKMTSLTTEDTATYFCAKNTFSPWGPGTLVTVSS
VL: DPAMTQTPSSTSAAVGGTVTINCQSSQSVYNANHLSWFQQKPGQPPKRLIYYISTPDSGVPPRFSGSGSGTQFTLTISGVQCDDAATYYCAALNSDEVFTFGGGTEVVVK
notes: also called rabbit anti-human OX-40 monoclonal antibody (SP197); anti-OX40 antibody SP197
Turning to B1, the binding result in assay [1] and in assay [2] was “binds” each time.
